Reference: the supplement of paper PMC7877785
± gives the uncertainty stated by the source.

Assay: self-splicing fitness, log relative to wild type (ln ratio); higher = more splicing; Tetrahymena group I intron in knt gene, E. coli kanamycin selection, DiMSum; sequences stand for … in CUCUCU…GGAGGGAAAAGUUAUCAGGCAUGCACCUGGUAGCUAGUCUUUAAACCAAUAGAUUGCAUCGGUUUAAAAGGCAAGACCGUCAAAUUGCGGGAAAGGGGUCAACAGCCGUUCAGUACCAAGUCUCAGGGGAAACUUUGAGAUGGCCUUGCAAAGGGUAUGGUAAUAAGCUGACGGACAUGGUCCUAACCACGCAGCCAAGUCCUAAGUCAACAGAUCUUCUGUUGAUAUGGAUGCAGUUCACAGACUAAAUGUCGGUCGGGGAAGAUGUAUUCUUCUCAUAAGAUAUAGUCGGACCUCUCCUUAAUGGGAGCUAGCGGAUGAAGUGAUGCAACACUGGAGCCGCUGGGAACUAAUUUGUAUGCGAAAGUAUAUUGAUUAGUUUUGGAGUACUCGUGGUCG
Method in brief: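 A randomised library covering all eight P1ex-region intron nucleotides was built with the intron in the knt kanamycin-resistance gene on pET-22b(+) and held in E. coli BL21(DE3). Cells were grown overnight at 37°C or 30°C on LB agar, with or without 25 μg/mL kanamycin, plus 100 μg/mL carbenicillin, 50 μM IPTG and 0.2% rhamnose, and pooled colonies were amplicon-sequenced on an Illumina HiSeq 2500. DiMSum fitness is the error-weighted combination of wild-type-normalised replicate fold changes, kanamycin versus none.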

Sequence | self-splicing fitness (ln) (30 °C) | self-splicing fitness (ln) (37 °C)
GCUAAGCAAUAUUACGCAGU | -3.5 ± 0.24 | -2.88 ± 0.31
GCUAAGCAAUAUUACGCAUG | -2.51 ± 0.16 | -2.09 ± 0.15
GCUAAGCAAUAUUACGCCAU | -2.71 ± 0.2 | -3.21 ± 0.27
GCUAAGCAAUAUUACGCCCC | -1.74 ± 0.28 | -0.52 ± 0.21
GCUAAGCAAUAUUACGCCGU | -3.45 ± 0.3 | -0.927 ± 0.31
GCUAAGCAAUAUUACGCGAA | -2.87 ± 0.13 | -1.1 ± 0.14
GCUAAGCAAUAUUACGCGAC | -2.11 ± 0.14 | -1.54 ± 0.17
GCUAAGCAAUAUUACGCGUA | -1.26 ± 0.12 | -0.718 ± 0.14
GCUAAGCAAUAUUACGGAAA | -1.48 ± 0.2 | -2.28 ± 0.24
GCUAAGCAAUAUUACGGAAG | -1.5 ± 0.071 | -0.648 ± 0.088
GCUAAGCAAUAUUACGGACA | -1.35 ± 0.12 | -1.17 ± 0.12
GCUAAGCAAUAUUACGGCCU | -1.89 ± 0.095 | -0.893 ± 0.11
GCUAAGCAAUAUUACGGUAA | -1.65 ± 0.17 | -1.04 ± 0.16
GCUAAGCAAUAUUACGUAUA | -1.76 ± 0.12 | -0.55 ± 0.13
GCUAAGCAAUAUUACGUCAA | -1.5 ± 0.26 | -1.76 ± 0.32
GCUAAGCAAUAUUACGUCUA | -0.793 ± 0.095 | -0.911 ± 0.12
GCUAAGCAAUAUUACGUGAC | -2.24 ± 0.2 | -0.851 ± 0.21
GCUAAGCAAUAUUACGUGGG | -2.99 ± 0.14 | -1.61 ± 0.13
GCUCAGCAAUAUUACGAACG | -0.679 ± 0.15 | -0.216 ± 0.17
GCUCAGCAAUAUUACGAAUC | -0.406 ± 0.081 | -0.385 ± 0.082
GCUCAGCAAUAUUACGACAC | -0.687 ± 0.098 | 0.564 ± 0.15
GCUCAGCAAUAUUACGACCG | -1.52 ± 0.17 | -0.109 ± 0.17
GCUCAGCAAUAUUACGAGAU | -1.4 ± 0.077 | -0.431 ± 0.078
GCUCAGCAAUAUUACGAGGC | -4.34 ± 0.42 | -1.42 ± 0.19
GCUCAGCAAUAUUACGAUAG | -1.95 ± 0.11 | -1.26 ± 0.096
GCUCAGCAAUAUUACGAUCC | -0.823 ± 0.076 | -0.215 ± 0.1

Sequence | self-splicing fitness (ln) (30 °C) | self-splicing fitness (ln) (37 °C)
GCUCAGCAAUAUUACGAUUU | -0.259 ± 0.056 | 0.00309 ± 0.075
GCUCAGCAAUAUUACGCAAA | -1.15 ± 0.18 | -0.688 ± 0.14
GCUCAGCAAUAUUACGCCCA | -1.99 ± 0.25 | -1.09 ± 0.23
GCUCAGCAAUAUUACGCGUA | -0.217 ± 0.067 | -0.265 ± 0.079
GCUCAGCAAUAUUACGCGUU | -0.447 ± 0.066 | 0.599 ± 0.084
GCUCAGCAAUAUUACGCUGU | -1.22 ± 0.073 | -0.159 ± 0.081
GCUCAGCAAUAUUACGCUUA | -1.4 ± 0.054 | -0.165 ± 0.06
GCUCAGCAAUAUUACGGAAC | -0.677 ± 0.073 | 0.0247 ± 0.11
GCUCAGCAAUAUUACGGAGU | -4.36 ± 0.29 | -3.35 ± 0.32
GCUCAGCAAUAUUACGGCCA | -1.77 ± 0.15 | -0.805 ± 0.16
GCUCAGCAAUAUUACGGGGG | -3.18 ± 0.17 | -1.92 ± 0.16
GCUCAGCAAUAUUACGGGUG | -0.435 ± 0.055 | -0.211 ± 0.074
GCUCAGCAAUAUUACGGUAU | -1.14 ± 0.061 | 0.0133 ± 0.075
GCUCAGCAAUAUUACGUAGA | -0.134 ± 0.073 | -0.191 ± 0.084
GCUCAGCAAUAUUACGUCGU | -0.158 ± 0.057 | 0.486 ± 0.082
GCUCAGCAAUAUUACGUCUC | -0.67 ± 0.12 | -0.754 ± 0.1
GCUCAGCAAUAUUACGUUGC | -1.99 ± 0.17 | -1.27 ± 0.16
GCUCAGCAAUAUUACGUUGG | -1.96 ± 0.17 | -2.46 ± 0.19
GCUCAGCAAUAUUACGUUGU | -0.847 ± 0.042 | -0.0979 ± 0.057
GCUCAGCAAUAUUACGUUUA | -1.44 ± 0.09 | -0.861 ± 0.083
GCUGAGCAAUAUUACGAAAC | -2.42 ± 0.17 | 0.274 ± 0.14
GCUGAGCAAUAUUACGACCA | -3.18 ± 0.41 | -1.57 ± 0.39
GCUGAGCAAUAUUACGACGG | -1.27 ± 0.17 | -0.245 ± 0.27
GCUGAGCAAUAUUACGACUG | -2.16 ± 0.35 | -0.83 ± 0.38
GCUGAGCAAUAUUACGAGAG | -2.49 ± 0.23 | -2.41 ± 0.22
GCUGAGCAAUAUUACGAGGG | -2.71 ± 0.16 | -2.45 ± 0.31

Sequence | self-splicing fitness (ln) (30 °C) | self-splicing fitness (ln) (37 °C)
GCUGAGCAAUAUUACGAGUG | -0.948 ± 0.14 | -1.2 ± 0.17
GCUGAGCAAUAUUACGCAGA | -2.47 ± 0.29 | -1.6 ± 0.32
GCUGAGCAAUAUUACGCGGA | -4.07 ± 0.35 | -2.82 ± 0.23
GCUGAGCAAUAUUACGCGUC | -1.94 ± 0.17 | -0.941 ± 0.21
GCUGAGCAAUAUUACGGCAA | -1.52 ± 0.21 | -2.9 ± 0.31
GCUGAGCAAUAUUACGGGUA | -1.3 ± 0.091 | -1.15 ± 0.1
GCUGAGCAAUAUUACGUACG | -2.59 ± 0.27 | -1.16 ± 0.29
GCUGAGCAAUAUUACGUAGG | -1.82 ± 0.084 | -1.24 ± 0.12
GCUGAGCAAUAUUACGUAUG | -3.21 ± 0.16 | -2.61 ± 0.33
GCUGAGCAAUAUUACGUCUA | -2.85 ± 0.22 | -1.06 ± 0.14
GCUGAGCAAUAUUACGUGAG | -1.73 ± 0.11 | -1.28 ± 0.095
GCUGAGCAAUAUUACGUUAC |  | -2.37 ± 0.32
GCUUAGCAAUAUUACGACAC | -0.819 ± 0.21 | -0.721 ± 0.16
GCUUAGCAAUAUUACGACAG | -2.97 ± 0.3 | -1.93 ± 0.47
GCUUAGCAAUAUUACGACAU | -1.26 ± 0.014 | -0.365 ± 0.033
GCUUAGCAAUAUUACGAGUU | -1.62 ± 0.091 | -0.362 ± 0.11
GCUUAGCAAUAUUACGAUCG | -1.19 ± 0.1 | -0.254 ± 0.12
GCUUAGCAAUAUUACGAUGG | -1.54 ± 0.1 | -0.452 ± 0.097
GCUUAGCAAUAUUACGCCAA | -4.1 ± 0.43 | 
GCUUAGCAAUAUUACGCCAU |  | -2.2 ± 0.39
GCUUAGCAAUAUUACGCCGC | -3.07 ± 0.5 | 
GCUUAGCAAUAUUACGCGAC | -3.07 ± 0.29 | -1.73 ± 0.2
GCUUAGCAAUAUUACGCGAG | -2.04 ± 0.22 | -2.56 ± 0.33
GCUUAGCAAUAUUACGCGGU | -3.52 ± 0.2 | -3.42 ± 0.28
